Tests used:
hFc-mC3d [1] = molecular target: T1, hFc-mC3d (mouse, UniProt P01027 1002-1303); test: Table 3, column Mouse C3d; rounded form of the SPR Kd on hFc-mC3d of Table 2
T1 construct: domain: C3d; also called hFc-mC3d fusion protein; not shown: human Fc of vector pCEP4-hFc
Description: (§1) Surface plasmon resonance (SPR) for the measurement of kinetic and thermodynamic parameters of the binding of purified antibodies to hC3d or mC3d antigens was performed on a Biacore X100 instrument using Biacore reagents and software (GE Healthcare, Chicago, Ill.). A mouse anti-human IgG CH2 mAb was immobilized on a CM5 sensor chip using reagents and instructions supplied with the Human Antibody Capture Kit (GE Healthcare). hFc-hC3d and hFc-mC3d fusion proteins were captured at a density not exceeding 400 RU. Each sensor chip included an empty flow cell for instantaneous background depletion. All binding assays used 1×HBS-EP+ running buffer (10 mM HEPES, 150 mM NaCl, 3 mM EDTA (pH 7.4), and 0.05% (v/v) surfactant P20) and a flow rate of 30 μL/min. All of the Fabs were injected at five different concentrations (dilution factor was 2), and the lowest concentration was tested in duplicates. The sensor chips were regenerated with 3 M MgCl₂ from the Human Antibody Capture Kit without any loss of binding capacity. Calculation of association (kₒₙ) and dissociation (koff) rate constants was based on a 1:1 Langmuir binding model. The equilibrium dissociation constant (KD) was calculated from koff/kₒₙ.

hFc-mC3d [2] = molecular target: T1, hFc-mC3d; test: SPR (Biacore X100), hFc-mC3d captured by anti-human IgG CH2 mAb, Fab injected, 1:1 Langmuir
Description: as §1

hFc-hC3d [3] = molecular target: T2, hFc-hC3d (human, UniProt P01024 1002-1303); test: Table 3, column Human C3d; rounded form of the SPR Kd on hFc-hC3d of Table 2
T2 construct: range 1002-1303; expressed in HEK293F cells, purified on Protein A; also called hFc-hC3d fusion protein; not shown: human Fc of vector pCEP4-hFc
T2 sequence (P01024 other isoform, or with tags, fused parts or gaps, form in doubt): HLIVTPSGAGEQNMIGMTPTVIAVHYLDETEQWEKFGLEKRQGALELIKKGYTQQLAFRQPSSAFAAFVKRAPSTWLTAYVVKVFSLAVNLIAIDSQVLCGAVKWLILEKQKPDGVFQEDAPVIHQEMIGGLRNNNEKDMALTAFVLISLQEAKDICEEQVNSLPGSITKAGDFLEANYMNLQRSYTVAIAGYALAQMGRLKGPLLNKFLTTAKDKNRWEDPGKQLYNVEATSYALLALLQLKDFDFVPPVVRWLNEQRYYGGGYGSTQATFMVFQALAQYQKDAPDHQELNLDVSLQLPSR
Description: as §1

hFc-hC3d [4] = molecular target: T2, hFc-hC3d; test: SPR (Biacore X100), hFc-hC3d captured by anti-human IgG CH2 mAb, Fab injected, 1:1 Langmuir
Description: as §1

hFc-mC3d [5] = molecular target: T1, hFc-mC3d; test: SPR, hFc-mC3d captured by anti-human IgG CH2 mAb, Fab injected
[6] = molecular target: T3, Mouse C3b/iC3b/C3d deposited on zymosan particles (mouse, UniProt P01027 1002-1303, limits assumed); test: flow cytometry: His-tagged Fab at 5 µg/mL on zymosan particles opsonized with 50% mouse serum, mouse anti-6xHis Alexa Fluor 488
T3 construct: also called Zymosan deposited C3b/iC3b/(C3d) mouse
T3 sequence (P01027 1002-1303 limits assumed): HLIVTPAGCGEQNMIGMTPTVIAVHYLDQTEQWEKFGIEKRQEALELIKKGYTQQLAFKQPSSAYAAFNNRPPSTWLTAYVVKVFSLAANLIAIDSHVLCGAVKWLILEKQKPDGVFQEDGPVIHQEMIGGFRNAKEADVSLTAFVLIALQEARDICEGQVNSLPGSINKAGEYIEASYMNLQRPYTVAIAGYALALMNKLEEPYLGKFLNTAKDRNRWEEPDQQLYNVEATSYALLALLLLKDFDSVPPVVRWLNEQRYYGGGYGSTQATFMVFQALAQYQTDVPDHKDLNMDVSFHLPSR
Description: One million zymosan particles deposited with C3b/iC3b/C3d were added into one well of a V-bottom 96-well plate. Then 500 ng/100 μL of antibody was applied in each well at 37° C. for 1 h. After washing three times by phosphate buffered saline and TWEEN™ 20 (PBST), 100 μL of a 1:1000 dilution of a mouse anti-His tag mAb conjugated to ALEXA FLUOR™ 488 (Qiagen, Hilden, Germany) in 1% (w/v) bovine serum albumin (BSA)/DPBS was used to detect the antibody.
The cross reactivity of 5 μg/mL of antibodies of the invention with 6xHis tag to human, or cynomolgus, or mouse C3b/iC3b/C3d deposited on zymosan particles after incubation with 50% corresponding serum at 37° C. for 45 min was determined by flow cytometry with a secondary mouse anti-HIS mAb conjugated to ALEXA FLUOR™ 488. […] In Table 3, the relative level of affinity is shown by the number of plus or minus signs (e.g., +++=high affinity). m/h and r/h denote […], respectively, variable domains fused human constant domains; k, kappa light chain; λ, lambda light chain.

[7] = molecular target: T4, Jeko1 cell line deposited C3d (human, UniProt P01024 1002-1303, limits assumed); test: flow cytometry: Fab at 2.5 µg/mL on JeKo-1 cells opsonized with 10 µg/mL rituximab and incubated with 50% C5-depleted human serum for 2 h with 0.5 U/mL CR1 or for 24 h (C3b/iC3b decayed to C3d)
T4 construct: domain: C3d; also called human C3d on JeKo-1 cells
T4 sequence (P01024 1002-1303 limits assumed): as the sequence (P01024 other isoform, or with tags, fused parts or gaps, form in doubt) above, with A9C counted along it
Description: FIG. 13 is a graph showing the binding activity of antibodies of the invention to different human C3 fragments. The binding of each chimeric rabbit/human Fab at 2.5 μg/mL to C3b/iC3b/(C3d), or C3d was determined by flow cytometry against JeKo-1 cells deposited with human C3 fragments after opsonization by 10 μg/mL rituximab (RTX) followed by incubation with 50% CS-depleted human serum for 2 h with or without 0.5 U/mL CR1 or 24 h. In the presence of CR1 or after treatment with serum for 24 h, most of C3 fragments had decayed from C3b/iC3b to C3d.
To deposit C3 fragments on zymosan, one hundred million of preactivated zymosan particles (Complement Technology, Inc.) were washed and then incubated with 50% pooled normal human complement serum (PNHCS) or normal BALB/c mouse or cynomolgus complement serum in 1 mL Dulbecco's phosphate-buffered saline (DPBS) at 37° C. for 1 h. For JeKo-1 cells, 10 μg/mL rituximab (RTX) was first used to opsonize cells followed by incubation with 50% CS-depleted PNHCS. To allow C3b/iC3b deposited on JeKo-1 cells to decay to C3d, the incubation time of cells with serum was prolonged to 24 h, or 0.5 U/mL CR1 (rhCD35, R&D Systems, Minneapolis, Minn.) was included during the incubation. […]

hFc-mC3d [8] = molecular target: T1, hFc-mC3d; test: Table 3, column Mouse C3d; the SPR Kd on hFc-mC3d of Table 2
Description: as §1

hFc-hC3d [9] = molecular target: T2, hFc-hC3d; test: Table 3, column Human C3d; the SPR Kd on hFc-hC3d of Table 2
Description: as §1

T1 sequence (P01027 other isoform, or with tags, fused parts or gaps): as the sequence (P01027 1002-1303 limits assumed) above, with C9A counted along it

Row | Binder | Kd (hFc-mC3d [2]) | Kd (hFc-hC3d [4]) | binding result (hFc-mC3d [5]) | binding result [6] | also measured
1 | 5S8 (Fab, V domains shown, Chimeric rabbit/human Fab, kappa, with 6xHis tag in SPR, zymosan and JeKo-1 assays; also called Fab 5S8; 5S8 r/h-IgG1k) VH: QSVEESGGRLVTPGTPLTLTCTVSGFSLSSYAMTWVRQAPGKGLEWIGVIGTSGMRYYANWAKGRFTISKTSTTVDLKITSPTTEDTATYFCARANFYVGNDESTDAFDPWGPGTLVTVSS VL: ALVMTQTPPSLSASVGETVRIRCLASEDIYNTISWYQQKPGKPPTLLIYGASNLKSGVPPRFSGSGSGTDYTLTIGGVQSEDAATYYCLGGYSYSSTGLTFGAGTKVEIK | 9.04 nM | 3.35 nM | – | – | Kd (hFc-mC3d [1]): 9 nM; Kd (hFc-hC3d [3]): 3.4 nM
2 | 3NS2 (Fab, V domains shown, Chimeric rabbit/human Fab, lambda, with 6xHis tag) VH: QSVEESGGRLVTPGTPLTLTCTVSGIDLSSYSMGWVRQAPGKGLEWIGIIYNTGRIDYANWAKGRFTISKTSTTVDLKITSPTIGDTATYFCGRGYPGDIWGPGTLVTVSS VL: DVVMTQTPSSVSAAVGGTVTIKCQASESIYSDLAWYQQKPGQRPKLLIYFASTLASGVPSRFKGSGSGTEYTLTISGVQREDAATYYCLGDYGNSWAFGAGTKVEIK | – | – | no binding | no binding (tested: 5 µg/mL) | –
3 | 4S12 (Fab, V domains shown, Chimeric rabbit/human Fab, lambda, with 6xHis tag) VH: QEQLVESGGRLVTPGTPLTLTCTVSGFSLSSYHMSWVRQAPGKGLEWIGIIYFTGDASYASWAKGRFTISKTSPTTVDLKITSPTTEDTATYFCARDTDWNSSRTIPFDPWGPGTLVTVSS VL: SFVLTQPASVQVNLGQTVSLTCTADTLSRTYASWYQQKPGQAPVLLIYRDTSRPSGVPDRFSGSSSGNTATLTISGAQAGDEADYYCATSDGSGSSYQYVFGGGTQLTVTG | – | – | no binding | no binding (tested: 5 µg/mL) | –
4 | MN66 (Fab, V domains shown, Lambda) VH: QSVEESGGRLVTPGTPLTLTCTVSGFSLSSYAMSWVRQAPGKGLEWIGIIYPNDITYYASWAKGRFTISKTSTTVDLKITSPTTEDTATYFCARVVSWPGYTTEYYFNIWGPGTLVTISS VL: QFVLTQPQSVSGSLGQTVSMSCKCDSGNIDNYYVHWYQQHPGKAPTTVIYNDDQRPSGVPDRFSGSIDSTSNSASLTITGLLAEDEADYYCLSSVSSDNYVFGGGTQLTVTG | – | 0.31 nM | – | – | –
5 | 4S04 (Fab, V domains shown, Chimeric rabbit/human Fab, kappa, with 6xHis tag) VH: QEQLKESGGRLVTPGTPLTLTCTASGFSLSTYAMIWVRQAPGKGLEYIGIISYGGSAYYASWAKGRFTISKTSTTVDLKITSPTTEDTATYFCARDRGFGYGYGIGYYGLDPWGPGTLVTVSS VL: DGVMTQTPSSTSAAVEGTVTINCQASQSIGSYLSWYQQKPGQPPKLLIYQASKMASGVPSRFKGSGSGTQFTLTISNVQGEDAATYYCLGHYVGDWSFGAGTKVEIK | – | 4.11 nM | – | – | –
6 | 3N02 (Fab, V domains shown, Chimeric rabbit/human Fab (rabbit variable domains, human kappa constant domain) with 6xHis tag in SPR, zymosan ELISA and flow cytometry; also called 3N02 r/h-IgG1k) VH: QKQLVESGGRLVTPGGSLTLTCTISGIDLNTYGMTWVRQAPGKGLEYIGIIVSSGNTYYANWAQGRFTISKTSTTVDLKMTSLTASDTATYFCARGLGRAYSSGYGMDGWGPGTLVTVSS VL: DPVLTQTPSSTSAAVGGTVTIKCQASQNIYTSLAWYQQKPGQPPKLLIYGASNLASGVPSRFKGSRSGTEYTLTISGVEREDAATYYCLGSYTQIDTTFGGGTKLEIK | 97.6 nM | 13.3 nM | – | – | Kd (hFc-mC3d [1]): 98 nM; Kd (hFc-hC3d [3]): 13 nM
7 | 3NS3 (Fab, V domains shown, Chimeric rabbit/human Fab, lambda, with 6xHis tag) VH: QSLEESGGGLVTPGTPLTLTCTVSGIDLSAYAMTWVRQAPGKGLEWIGMISTDGATYYASWAKGRFTISKTSTTADLTITSPTTEDTATYFCARGLTNFFIWGPGTLVTISS VL: QPVLTQSPSASATLGSSAKLTCTLSSAHSTYTIAWYQQKQGESPRCLMYLKSDGSYTRGTGVPDRFSGSSSGADRYLIIPNVQADDEADYYCGADYSGGYLFGGGTQLTVTG | – | – | no binding | no binding (tested: 5 µg/mL) | –
8 | 3NS1 (Fab, V domains shown, Chimeric rabbit/human Fab, lambda, with 6xHis tag; also called 3NS1 r/h-IgG1λ) VH: QSVEESGGRLVTPGTPLTLTCTVSGFSLSNYIITWVRQAPGKGLEWIGMISTDGDTYYANWAKGRFTISKTSTTANLKITSPTTEDTATYFCARGLTNFFIWGPGTLVTVSS VL: QPVLTQSPSVSAALGASAKLTCTLSSAHKTYSIGWYQQHQGEAPRFLMQLRRDGSYTKGTGVPDHFSGSSSGADRYLIIPNVQADDEADYYCGVDYDGGYVFGGGTQLTVTG | – | – | no binding | no binding (tested: 5 µg/mL) | binding result [7]: binds
9 | 4S10 (Fab, V domains shown, Chimeric rabbit/human Fab, lambda, with 6xHis tag) VH: QSVEESRGRLVTPGTPLTLTCTVSGIDLSSSAITWVRQAPGKGLEWIGMISTDGATYYANWAKGRFTFSKTSTTADLKITSPTTEDTATYFCARGLTNFSIWGPGTLVTVSS VL: QPVLTQSPSASAALGASAKLTCTLSSAHKTYTIAWYQQQPGESPRYLMLLKSDGSYTRGPGVPDRFSGSSSGADRYLIIPSVQADDEAGYYCGADYNGGYVFGGGTQLTVTG | – | – | no binding | – | –
10 | 3N07 (Fab, V domains shown, Chimeric rabbit/human Fab, kappa, with 6xHis tag; also called Fab 3N07; 3N07 r/h-IgG1k) VH: QSLEESGGRLVTPGTPLTLTCTVSGFSLSRYTMAWVRQAPGKGLEYIGWIDSSGSTYYASWAKGRFTISKTSSTTVDLKMTSLTTEDTATYFCASGNDGGDPLYYGMDPWGPGTLVTVSS VL: DGVMTQTPSSTSAAVGGTVTIKCQASQSIRSWLSWYQQKPGQPPKLLIYEASKLASGVPSRFKGSRSGTEYTLAISGVQREDAATYYCLGSIASDDTAFGAGTNVEIK | 132 nM | 3.1 nM | – | – | Kd (hFc-hC3d [3]): 3.1 nM; Kd (hFc-mC3d [8]): 132 nM
11 | d301 (Fab, V domains shown, Chimeric rabbit/human Fab, kappa, with 6xHis tag; also called Fab d301; d301 r/h-IgG1k) VH: QSLEESGGRLVTPGTPLTLTCTVSGFSLSTYTLGWVRQAPGKGLEYIGWIDSSGSAYYASWAKGRFTISKASSTTVDLKMAGLTTEDTATYFCASGNTGGDPLYYGMDPWGPGTLVTVSS VL: DPVLTQTPSSTSAAVGGTVTIKCQASQNIGRWLAWYQQKPGQPPKLLIYRASDLASGVPSRFKGSGSGTQFTLTISGVQREDAATYYCLGSYSSSDSAFGGGTEVVVK | 22.9 nM | 0.99 nM | – | – | Kd (hFc-mC3d [1]): 23 nM; Kd (hFc-hC3d [9]): 0.99 nM
